Values of other authors as cited in article PMC6844576.
pKd: −log10 of the molar value.

Biological target: IL-6 receptor (Homo sapiens) (UniProt P08887)
Test: 125I-rhIL-6 radioligand binding

Chain of UniProt P08887 (P08887 20-365): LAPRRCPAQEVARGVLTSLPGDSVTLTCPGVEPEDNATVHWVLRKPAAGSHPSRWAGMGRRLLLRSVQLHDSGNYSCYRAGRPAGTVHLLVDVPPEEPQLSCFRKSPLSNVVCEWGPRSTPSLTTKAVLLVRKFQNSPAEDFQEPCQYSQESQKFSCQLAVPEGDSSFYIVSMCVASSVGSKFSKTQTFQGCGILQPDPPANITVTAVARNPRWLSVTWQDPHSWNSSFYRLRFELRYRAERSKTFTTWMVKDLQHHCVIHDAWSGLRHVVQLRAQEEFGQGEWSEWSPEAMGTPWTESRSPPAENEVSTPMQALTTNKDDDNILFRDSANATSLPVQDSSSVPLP

pKd: 9.36
Substance: interleukin-6 (from UniProt P05231)
